According to the supplement of paper PMC6757056:
± gives the standard deviation of the averaged measurements.

B1: library; a variant is named by its letters at N, in order (parent)
chain: GCUGUCACCGGUGUAUUACCCUAGUGGUCGACCGGUCUGAUGAGUCUNNNNNNAGACGAAACAGC

Columns and labels:
[1] = variants of: B1; experiment: normalized RNA/DNA level with ligand (relative to sTRSVctl = 100) (log10 (% of sTRSVctl)); ligand: hypoxanthine (xanthine aptamer); higher = less ribozyme self-cleavage, higher mRNA level; settings: ligand concentration (+) RNA-Seq: 5 mM, HEK293T, reporter: mCherry (pCS4076), ligand present: yes
Method in brief: (§1)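 HEK293T cells were transfected with library plasmids carrying ribozyme switches linked to an mCherry reporter, or an eGFP reporter in some ligand experiments, at 4 µg per well of a 6-well plate, with any ligand added 1 h beforehand. After 72 h, total RNA was extracted with EDTA, reverse-transcribed, amplified, barcoded and sequenced. RNA level was defined as RNA reads over DNA reads, normalized to a spiked-in non-cleaving sequence or to the top-ranked sequences. That value was multiplied by 100 and converted to log10, the top set was 25 sequences, and only sequences with ≥100 DNA reads were retained.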

[2] = variants of: B1; experiment: normalized RNA/DNA level without ligand (relative to sTRSVctl = 100) (log10 (% of sTRSVctl)); ligand: hypoxanthine (xanthine aptamer); higher = less ribozyme self-cleavage, higher mRNA level; settings: HEK293T, reporter: mCherry (pCS4076), ligand present: no
Method in brief: as §1

Row | Variant | normalized RNA/DNA level with ligand (log10) [1] | normalized RNA/DNA level without ligand (log10) [2]
1 | GCUGUCACCGGUGUAUUACCCUAGUGGUCGACCGGUCUGAUGAGUCUUAUUUGAGACGAAACAGC | 1.93 ± 0.039 | 1.78 ± 0.026
2 | GCUGUCACCGGUGUAUUACCCUAGUGGUCGACCGGUCUGAUGAGUCUCAUUUUAGACGAAACAGC | 1.973 ± 0.0049 | 1.804 ± 0.0085
3 | GCUGUCACCGGUGUAUUACCCUAGUGGUCGACCGGUCUGAUGAGUCUGAUUUUAGACGAAACAGC | 1.947 ± 0.0067 | 1.908 ± 0.0016
4 | GCUGUCACCGGUGUAUUACCCUAGUGGUCGACCGGUCUGAUGAGUCUAAUUUUAGACGAAACAGC | 1.946 ± 0.013 | 1.886 ± 0.0096
5 | GCUGUCACCGGUGUAUUACCCUAGUGGUCGACCGGUCUGAUGAGUCUUAUUUUAGACGAAACAGC | 1.94 ± 0.044 | 1.86 ± 0.05
6 | GCUGUCACCGGUGUAUUACCCUAGUGGUCGACCGGUCUGAUGAGUCUCCAAAAAGACGAAACAGC | 1.92 ± 0.032 | 1.82 ± 0.052
7 | GCUGUCACCGGUGUAUUACCCUAGUGGUCGACCGGUCUGAUGAGUCUGCAAAAAGACGAAACAGC | 1.928 ± 0.015 | 1.79 ± 0.025
8 | GCUGUCACCGGUGUAUUACCCUAGUGGUCGACCGGUCUGAUGAGUCUUCAAACAGACGAAACAGC | 1.916 ± 0.0079 | 1.85 ± 0.03
9 | GCUGUCACCGGUGUAUUACCCUAGUGGUCGACCGGUCUGAUGAGUCUCCAAAGAGACGAAACAGC | 1.885 ± 0.013 | 1.58 ± 0.033
10 | GCUGUCACCGGUGUAUUACCCUAGUGGUCGACCGGUCUGAUGAGUCUGCAAAGAGACGAAACAGC | 1.894 ± 0.0041 | 1.501 ± 0.0085
11 | GCUGUCACCGGUGUAUUACCCUAGUGGUCGACCGGUCUGAUGAGUCUCCAACAAGACGAAACAGC | 1.93 ± 0.022 | 1.883 ± 0.017
12 | GCUGUCACCGGUGUAUUACCCUAGUGGUCGACCGGUCUGAUGAGUCUACAACAAGACGAAACAGC | 1.92 ± 0.028 | 1.85 ± 0.022
13 | GCUGUCACCGGUGUAUUACCCUAGUGGUCGACCGGUCUGAUGAGUCUGCAACCAGACGAAACAGC | 1.93 ± 0.052 | 1.82 ± 0.03
14 | GCUGUCACCGGUGUAUUACCCUAGUGGUCGACCGGUCUGAUGAGUCUACAACCAGACGAAACAGC | 1.91 ± 0.04 | 1.91 ± 0.013
15 | GCUGUCACCGGUGUAUUACCCUAGUGGUCGACCGGUCUGAUGAGUCUUCAACCAGACGAAACAGC | 1.978 ± 0.0062 | 1.95 ± 0.06
16 | GCUGUCACCGGUGUAUUACCCUAGUGGUCGACCGGUCUGAUGAGUCUCCAACGAGACGAAACAGC | 1.924 ± 0.0039 | 1.859 ± 0.012
17 | GCUGUCACCGGUGUAUUACCCUAGUGGUCGACCGGUCUGAUGAGUCUGCAACGAGACGAAACAGC | 1.9 ± 0.031 | 1.595 ± 0.0074
18 | GCUGUCACCGGUGUAUUACCCUAGUGGUCGACCGGUCUGAUGAGUCUACAACGAGACGAAACAGC | 1.89 ± 0.047 | 1.49 ± 0.021
19 | GCUGUCACCGGUGUAUUACCCUAGUGGUCGACCGGUCUGAUGAGUCUGCAACUAGACGAAACAGC | 1.97 ± 0.042 | 1.96 ± 0.028
20 | GCUGUCACCGGUGUAUUACCCUAGUGGUCGACCGGUCUGAUGAGUCUACAACUAGACGAAACAGC | 1.885 ± 0.018 | 1.83 ± 0.037
21 | GCUGUCACCGGUGUAUUACCCUAGUGGUCGACCGGUCUGAUGAGUCUUCAACUAGACGAAACAGC | 1.962 ± 0.016 | 1.883 ± 0.0061

Row | Variant | normalized RNA/DNA level with ligand (log10) [1] | normalized RNA/DNA level without ligand (log10) [2]
22 | GCUGUCACCGGUGUAUUACCCUAGUGGUCGACCGGUCUGAUGAGUCUCCAAGAAGACGAAACAGC | 1.945 ± 0.0033 | 1.82 ± 0.034
23 | GCUGUCACCGGUGUAUUACCCUAGUGGUCGACCGGUCUGAUGAGUCUGCAAGCAGACGAAACAGC | 1.89 ± 0.074 | 1.575 ± 0.0013
24 | GCUGUCACCGGUGUAUUACCCUAGUGGUCGACCGGUCUGAUGAGUCUUCAAGCAGACGAAACAGC | 1.964 ± 0.019 | 1.87 ± 0.053
25 | GCUGUCACCGGUGUAUUACCCUAGUGGUCGACCGGUCUGAUGAGUCUCCAAGGAGACGAAACAGC | 1.83 ± 0.036 | 1.603 ± 0.013
26 | GCUGUCACCGGUGUAUUACCCUAGUGGUCGACCGGUCUGAUGAGUCUGCAAGGAGACGAAACAGC | 1.84 ± 0.04 | 1.35 ± 0.032
27 | GCUGUCACCGGUGUAUUACCCUAGUGGUCGACCGGUCUGAUGAGUCUUCAAGGAGACGAAACAGC | 1.936 ± 0.0091 | 1.79 ± 0.026
28 | GCUGUCACCGGUGUAUUACCCUAGUGGUCGACCGGUCUGAUGAGUCUGCAAGUAGACGAAACAGC | 1.93 ± 0.036 | 1.69 ± 0.043
29 | GCUGUCACCGGUGUAUUACCCUAGUGGUCGACCGGUCUGAUGAGUCUACAAGUAGACGAAACAGC | 1.88 ± 0.032 | 1.564 ± 0.013
30 | GCUGUCACCGGUGUAUUACCCUAGUGGUCGACCGGUCUGAUGAGUCUCCAAUAAGACGAAACAGC | 1.899 ± 0.0083 | 1.8 ± 0.032
31 | GCUGUCACCGGUGUAUUACCCUAGUGGUCGACCGGUCUGAUGAGUCUUCAAUAAGACGAAACAGC | 1.91 ± 0.049 | 1.76 ± 0.021
32 | GCUGUCACCGGUGUAUUACCCUAGUGGUCGACCGGUCUGAUGAGUCUCCAAUCAGACGAAACAGC | 1.98 ± 0.032 | 1.94 ± 0.044
33 | GCUGUCACCGGUGUAUUACCCUAGUGGUCGACCGGUCUGAUGAGUCUACAAUCAGACGAAACAGC | 1.9924 ± 0.0011 | 1.93 ± 0.025
34 | GCUGUCACCGGUGUAUUACCCUAGUGGUCGACCGGUCUGAUGAGUCUUCAAUGAGACGAAACAGC | 1.85 ± 0.035 | 1.702 ± 0.0043
35 | GCUGUCACCGGUGUAUUACCCUAGUGGUCGACCGGUCUGAUGAGUCUCCAAUUAGACGAAACAGC | 1.924 ± 0.016 | 1.85 ± 0.028
36 | GCUGUCACCGGUGUAUUACCCUAGUGGUCGACCGGUCUGAUGAGUCUGCAAUUAGACGAAACAGC | 1.952 ± 0.011 | 1.858 ± 0.0079
37 | GCUGUCACCGGUGUAUUACCCUAGUGGUCGACCGGUCUGAUGAGUCUACAAUUAGACGAAACAGC | 1.939 ± 0.019 | 1.736 ± 0.0095
38 | GCUGUCACCGGUGUAUUACCCUAGUGGUCGACCGGUCUGAUGAGUCUUCAAUUAGACGAAACAGC | 1.96 ± 0.0097 | 1.89 ± 0.023
39 | GCUGUCACCGGUGUAUUACCCUAGUGGUCGACCGGUCUGAUGAGUCUCCACAAAGACGAAACAGC | 1.9686 ± 0.0014 | 1.8 ± 0.033
40 | GCUGUCACCGGUGUAUUACCCUAGUGGUCGACCGGUCUGAUGAGUCUACACAAAGACGAAACAGC | 1.92 ± 0.065 | 1.78 ± 0.028
41 | GCUGUCACCGGUGUAUUACCCUAGUGGUCGACCGGUCUGAUGAGUCUUCACAAAGACGAAACAGC | 1.92 ± 0.061 | 1.75 ± 0.019
42 | GCUGUCACCGGUGUAUUACCCUAGUGGUCGACCGGUCUGAUGAGUCUCCACACAGACGAAACAGC | 1.93 ± 0.067 | 1.777 ± 0.015
